Experimental data published in US20250186597A1, “TARGETED IMMUNE ACTIVATION WITH IL-18 IMMUNOCYTOKINES” (BRIGHT PEAK THERAPEUTICS AG, priority 2023, published 2025).
pEC50, pIC50, pKd: −log10 of the molar value.

Columns and labels:
[1] = molecular target: T1, human Fc gamma receptors IIb (FcγRIIb/CD32b) (Homo sapiens, UniProt P31994); assay: Human FcγR binding ELISA, FcγRIIb/CD32b (Example 8); conditions: ELISA binding affinity
T1 construct: purchased R&D systems AVI1875-050
T1 sequence (P31994 43-310): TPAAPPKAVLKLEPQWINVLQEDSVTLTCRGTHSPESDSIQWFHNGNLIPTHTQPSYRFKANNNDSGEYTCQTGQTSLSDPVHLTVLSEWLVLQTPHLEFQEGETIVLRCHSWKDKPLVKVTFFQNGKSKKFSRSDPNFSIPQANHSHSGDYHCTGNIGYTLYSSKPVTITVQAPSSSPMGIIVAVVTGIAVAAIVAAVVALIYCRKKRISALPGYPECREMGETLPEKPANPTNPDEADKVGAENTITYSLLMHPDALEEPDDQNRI
Experimental: (§1) The interaction of the unmodified and of conjugated antibodies with human Fc gamma receptors I (FcγRI/CD64), with human Fc gamma receptors IIa (FcγRIIa/CD32a), with inhibitory human Fc gamma receptors IIb (FcγRIIb/CD32b), and with human Fc gamma receptors III FcγRIIIa/CD16 were measured by ELISA.
(§2) Briefly, Corning high-binding half-area plates (Fisher Scientific, Reinach, Switzerland) were coated overnight at 4° C. with 25 μl of unmodified and of conjugated anti-PD1 antibodies at 2.5 μg/ml in PBS. […] Plates surfaces were blocked with 25 μl of PBS-0.02% Tween20-1% BSA at 37° C. during 1 h. […] Twenty-five microliters of a 1/500 HRP-anti-His antibody in PBS—0.02% Tween20—0.1% BSA (R&D systems, anti-HIS—HRP Ab, #MAB050H) were added to each well and plates were incubated at Room Temperature during 1 h. […] ELISA signal was then measured at 450 nm on an EnSpire plate reader from Perkin Elmer (Schwerzenbach, Switzerland).

[2] = molecular target: T2, human Fc gamma receptors I (FcγRI/CD64) (Homo sapiens, UniProt P12314); assay: Human FcγR binding ELISA, FcγRI/CD64 (Example 8); conditions: ELISA binding affinity
T2 construct: purchased R&D systems 1257-FC-050
Experimental: as §1, §2

[3] = molecular target: T3, human Fc gamma receptors IIa (FcγRIIa/CD32a) (Homo sapiens, UniProt P12318); assay: Human FcγR binding ELISA, FcγRIIa/CD32a (Example 8); conditions: ELISA binding affinity
T3 construct: purchased R&D systems 9595-CD-050
T3 sequence (P12318 34-317): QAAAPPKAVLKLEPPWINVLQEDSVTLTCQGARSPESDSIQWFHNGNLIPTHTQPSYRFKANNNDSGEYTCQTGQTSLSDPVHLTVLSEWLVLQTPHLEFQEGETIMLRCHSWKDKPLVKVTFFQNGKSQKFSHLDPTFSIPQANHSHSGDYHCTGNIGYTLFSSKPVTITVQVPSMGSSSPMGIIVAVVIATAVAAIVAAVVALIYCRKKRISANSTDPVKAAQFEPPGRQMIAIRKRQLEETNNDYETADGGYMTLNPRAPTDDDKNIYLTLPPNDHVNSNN
Experimental: as §1, §2

[4] = molecular target: T4, human neonatal Fc receptor (FcRn) (Homo sapiens, UniProt P55899); assay: Human FcRn binding AlphaLISA at pH 6 (Example 9)
T4 construct: purchased Perkin Elmer AL3095C
Experimental: The interaction of the unmodified and of conjugated anti-PD1 antibodies with the human neonatal Fc receptor (FcRn) at pH 6 was measured using the AlphaLISA® Human FcRn Binding Kit (AL3095C) from Perkin Elmer (Schwerzenbach, Switzerland). […] When reference IgG binds to FcRn, donor and acceptor beads come into proximity enabling the transfer of singlet oxygen that trigger a cascade of energy transfer reactions in the acceptor beads, resulting in a sharp peak of light emission at 615 nm. Addition of a free IgG antibodies into the AlphaLISA® mixture creates a competition for the binding of FcRn to the reference antibody resulting in a loss of signal.
After 90 min at 23° C. in the dark, AlphaLISA® signal was measured on an EnSpire plate reader (Excitation at 680 nm, Emission at 615 nm) from Perkin Elmer (Schwerzenbach, Switzerland).

[5] = molecular target: T5, human PD-L1/B7-H1 (Homo sapiens, UniProt Q9NZQ7); assay: PD-L1 binding ELISA assay (Example 5); conditions: biotinylated human PD-L1
T5 construct: purchased ACROBiosystems PD1-H82E5-25UG
Experimental: (§3) The interaction of the unmodified antibodies and corresponding IL-18 immunocytokines with relevant immune cell associated antigen are measured by ELISA assay. For these studies, Corning high-binding half-area plates (Fisher Scientific, Reinach, Switzerland) are coated overnight at 4° C. with 25 μl of unmodified antibodies corresponding IL-18 immunocytokines at […] in PBS. […] Plate surfaces are blocked with 25 μl of PBS-0.02% Tween20-1% BSA at 37° C. during 1 h. […] ELISA signal is then measured at 450 nm on an ENSPIRE® plate reader from Perkin Elmer (Schwerzenbach, Switzerland).

[6] = molecular target: T6, human Fc gamma receptors III FcγRIIIa/CD16 (Homo sapiens, UniProt P08637); assay: Human FcγR binding ELISA, FcγRIIIa/CD16 (Example 8); conditions: ELISA binding affinity
T6 construct: purchased R&D systems 4325-FC-050
Experimental: as §1, §2

[7] = molecular target: T7, human PD-1/CD279 (Homo sapiens, UniProt Q15116); assay: PD-1 binding ELISA assay (Example 5); conditions: biotinylated human PD-1
T7 construct: purchased Biolegend #789406
Experimental: as §3

[8] = molecular target: T8, human IL-18 Binding Protein (IL-18BP) (Homo sapiens, UniProt O95998); assay: IL-18 Binding Protein alphaLISA assay (Example 12); conditions: human IL-18BP
T8 sequence (O95998 31-194): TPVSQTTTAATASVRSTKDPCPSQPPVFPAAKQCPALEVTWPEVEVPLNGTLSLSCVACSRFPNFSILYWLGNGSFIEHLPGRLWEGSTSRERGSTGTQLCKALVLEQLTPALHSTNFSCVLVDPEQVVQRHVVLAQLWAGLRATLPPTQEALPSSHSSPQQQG
Experimental: Wild type or modified IL-18 polypeptides samples were diluted at 5.6 μM in a solution of 1× alphaLISA Immunoassay Buffer provided in the alphaLISA IFNγ Detection kit and were diluted applying 3-fold serial dilutions down to […] in 384 deep well plates. A solution of 10 ng/ml of human IL-18BP-His was prepared with 1×alphaLISA Immunoassay Buffer. IL-18/IL-18BP complex formation was performed incubating 30 μl of IL-18BP solution to IL-18 sample titrations for 1 h at 20° C. IL-18BP standard was prediluted from stock solution supplied in alphaLISA IFNγ Detection kit at 100 ng/ml with 1×alphaLISA Buffer and titration prepared from applying 2-fold serial dilutions. The following solutions were prepared: a 50 μg/ml solution of anti-IL-18BP alphaLISA Acceptor beads, a 5 nM solution of biotinylated anti-IL18BP antibody and a 80 μg/ml light-protected solution of Streptavidin Donor beads in 1×alphaLISA Immunoassay Buffer. […]
5 μl of Biotinylated anti-IL-18BP antibody were added, followed by a short centrifugation step at 150 g, and incubated for 60 minutes at 20° C. under shaking at 750 rpm. […] AlphaLisa signal was then measured on an Enspire plate reader (Perkin Elmer) using 680 and 615 nm as excitation and emission wavelengths respectively. […]

[9] = tested on: PD-1 positive (transduced) KG-1 cells; assay: IFN gamma secretion assay in PD-1 transduced KG-1 cells (Example 11); format: cell-based, human
Experimental: (§4) The KG-1 cell line was used to generate a PD-1 expressing cell line and furthermore, to measure IFNγ release upon incubation with IL-18 variants and corresponding IL-18 immunocytokines.
PD-1 expressing cell line generation: Briefly, KG-1 cells were transduced using lentiviral particles carrying the human PD-1 gene (PDCD1 NM_005018; Origene, CAT #: RC210364L3V) at a MOI (Multiplicity of Infection) of 30. Spinfection was performed at 1260 g during 90 min at 37° C. in the presence of 5 μg/ml of Polybrene and 10 mM of HEPES in complete culture media (RPMI, 10% FBS, 1% L-Glutamine). Five days after transduction, puromycin at a final concentration of 1 ug/ml was added to select for PD-1 positive cells. For culture maintenance, puromycin concentration was decreased to 0.5 μg/ml. Stable and homogenous expression of PD-1 was verified by surface staining (BD Pharmingen, #557860).
(§5) IFNγ release was assessed in PD-1 positive (transduced) KG-1 cells, as well as in the parental PD-1 negative cells. 0.5×10^5 cells were seeded into a 96-well U-bottom plate in culture media (RPMI, 10% FBS, 1% L-Glutamine) and stimulated with IL-18 variants/ICs for 20-24 h. The test items were diluted to 100 nM in culture medium, followed by 7 10-fold serial dilutions. The lowest concentration assessed was […]. After incubation, IFNγ release was measured using the LEGENDplex custom human mix and match KIT (Biolegend LEGENDplex™ Human IFN-γ Capture Bead B5, 13X #740942, LEGENDplex™ HU Essential Immune Response Panel Detection Abs, #740931, LEGENDplex™ Buffer Set A #740368). To this end, cell culture supernatant was collected and diluted 1:1 with Assay Buffer. Fluorescence measurements were done with a Quanteon Flow Cytometer from Acea Biosciences. For analysis, MFI values (median fluorescence intensity) were exported and plotted against concentrations used. The EC50 values (half maximal effective concentration) were calculated based on a variable slope and four parameter analysis using GraphPad PRISM software version 9.

[10] = tested on: parental PD-1 negative KG-1 cells; assay: IFN gamma secretion assay in parental PD-1 negative KG-1 cells (Example 11); format: cell-based, human; conditions: IFNγ secretion
Experimental: as §4, §5

[11] = tested on: NK92 cells; assay: Cellular IL-18 Binding Protein resistance assay in NK92 cells (Example 13); format: cell-based, human; conditions: IL-18BP-mediated inhibition of IFNγ secretion, IL-18 analyte 1 nM
Experimental: The NK cell line NK-92 derived from a patient with lymphoma (ATCC, Cat #CR^L-2407) was cultured in αMEM medium supplemented with 20% FCS-Glutamax, 25 μM B-mercaptoethanol, and 100 IU/ml of recombinant Human Interleukin-2 (IL-2). On the day of experiment, cells were harvested and washed with αMEM medium without IL-2. After counting, cells were seeded at 100 000 cells/well in a 384 well titer plate and incubated at 37° C./5% CO2. Sixteen 2-fold serial dilutions of Fc fused human IL-18 binding protein isoform a (IL-18BPa; R&D systems, Cat #119-BP) were prepared in αMEM medium—1 ng/ml IL-12 containing 2 nM of each IL-18 variants and were added to the NK-92 cells. Final IL-18 analytes concentration was 1 nM and final IL-18BPa concentrations ranged from to 566 nM down to 17 pM.
(§6) After 16-20 h incubation at 37° C./5% CO2, 5 μl of supernatant were carefully transferred to a 384 microwells OPTIplate (Perkin Elmer; Cat #6007270) and Interferon-gamma (IFNγ) levels measured using the Human IFNγ AlphaLISA Assay Kit (Perkin Elmer, Cat #AL217C). […] AlphaLisa signal was then measured on an Enspire plate reader (Perkin Elmer) using 680 and 615 nm as excitation and emission wavelengths respectively. Half maximal inhibitory concentration (IC50) was calculated based on a variable slope, four parameter analysis using GraphPad PRISM software.

[12] = tested on: NK92 cells; assay: IFN gamma secretion assay in NK92 cells (Example 10); format: cell-based, human; conditions: IFNγ secretion, 1 ng/ml IL-12
Experimental: The IFNγ-secretion stimulating activity of the unconjugated IL-18 variants and corresponding IL-18 immunocytokines was evaluated on NK92 cell line. The NK cell line NK-92 derived from a patient with lymphoma (ATCC, Cat #CRL-2407) was cultured in aMEM medium supplemented with 12.5% FCS, 12.5% horse serum (HS), 50 uM B-mercaptoEthanol, and 2 ng/ml of recombinant Human Interleukin-2 (IL-2).
On the day of experiment, cells were harvested and washed with aMEM medium without IL-2 and resuspended in medium (w/o IL-2) containing 1 ng/ml of recombinant human Interleukin-12 (SinoBiologicals, Cat #CT011-H08H). After counting, cells were seeded at 100 000 cells/well in a 384 well titer plate and incubated at 37° C./5% CO2. Sixteen 4-fold serial dilutions of IL-18 analytes were prepared in aMEM medium—1 ng/ml IL-12 and were added to the NK-92 cells. […]
as §6, with “OPTIPlate” for “OPTIplate”, “effective” for “inhibitory”, “(EC50)” for “(IC50)”

T2 sequence (P12314 16-374): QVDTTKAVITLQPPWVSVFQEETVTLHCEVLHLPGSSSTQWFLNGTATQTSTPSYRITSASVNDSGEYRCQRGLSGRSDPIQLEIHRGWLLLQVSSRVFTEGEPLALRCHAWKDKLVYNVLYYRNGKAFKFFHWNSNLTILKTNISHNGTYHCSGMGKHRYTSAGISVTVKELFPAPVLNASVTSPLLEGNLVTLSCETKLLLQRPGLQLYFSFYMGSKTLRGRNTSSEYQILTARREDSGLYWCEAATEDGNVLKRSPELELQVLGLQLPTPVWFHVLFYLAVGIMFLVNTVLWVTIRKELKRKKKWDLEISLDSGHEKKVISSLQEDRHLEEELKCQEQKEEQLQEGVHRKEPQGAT
T6 sequence (P08637 17-254): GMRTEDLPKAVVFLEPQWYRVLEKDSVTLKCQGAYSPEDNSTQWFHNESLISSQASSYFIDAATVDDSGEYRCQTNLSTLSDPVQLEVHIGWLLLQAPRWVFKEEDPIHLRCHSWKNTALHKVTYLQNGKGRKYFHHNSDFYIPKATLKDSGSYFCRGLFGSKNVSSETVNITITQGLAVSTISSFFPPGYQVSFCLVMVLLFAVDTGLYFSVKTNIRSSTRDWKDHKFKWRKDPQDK
T5 sequence (Q9NZQ7 19-290): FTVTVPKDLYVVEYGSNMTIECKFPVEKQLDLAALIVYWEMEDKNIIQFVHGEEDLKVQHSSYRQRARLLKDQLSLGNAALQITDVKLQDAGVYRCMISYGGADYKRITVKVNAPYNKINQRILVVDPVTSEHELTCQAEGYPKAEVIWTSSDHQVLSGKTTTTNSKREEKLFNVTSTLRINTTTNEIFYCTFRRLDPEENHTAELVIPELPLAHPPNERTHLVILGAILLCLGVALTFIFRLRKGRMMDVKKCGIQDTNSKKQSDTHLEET
T7 sequence (Q15116 25-288): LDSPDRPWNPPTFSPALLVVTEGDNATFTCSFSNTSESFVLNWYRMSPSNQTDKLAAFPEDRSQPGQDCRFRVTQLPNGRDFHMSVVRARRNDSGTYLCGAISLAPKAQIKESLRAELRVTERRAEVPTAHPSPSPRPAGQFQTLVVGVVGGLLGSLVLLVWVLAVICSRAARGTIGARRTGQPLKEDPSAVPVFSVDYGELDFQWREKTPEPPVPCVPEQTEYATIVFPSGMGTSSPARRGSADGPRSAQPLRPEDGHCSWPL

Row | pKd [1] | pKd [2] | pKd [3] | pKd [4] | pKd [5] | pKd [6] | pKd [7] | pKd [8] | pEC50 ([9]; IFNγ secretion, PD-1 transduced KG-1) | PD-1^neg/PD-1^pos EC50 ratio ([9]; KG-1 cells) | pIC50 [11] | pEC50 [12] | Substance | pEC50 [10]
1 | < 5.00 | 8.04 | 5.86 | 8.19 | 9.35 | 6.45 | < 7.00 |  |  |  |  |  | Atezolizumab/Tecentriq | 
2 |  |  |  |  |  |  |  | 9.99 | 9.87 | 1.2 | 9.55 | 9.99 | SEQ ID NO: 31: IL-18 polypeptide: C38A, C76A, C127A | 9.83
